The target in this data set is Lhr (archaeal Lhr, Mth1802) (Methanothermobacter thermautotrophicus …, UniProt O27830 1-862). Briefly: EMSA; no ATP; 100 nM Lhr, 10 nM DNA; EMSA: buffer HB (20 mM Tris-HCl pH 7.5, 2 mM DTT, 100 µg/ml BSA, 7% glycerol), room temperature, 10 nM DNA, 100 nM Lhr, +/- ATP and MgCl2, 5% acrylamide TBE gel; smFRET: 1 µM Lhr, RT or 45°C. Conditions: protein: recombinant; tags: none stated (pET22b via NdeI/EcoRI, pEB352; no tag purification); label: ATTO 532 (green); partial fork 1:3 parental 24 bp, 3:4 leading arm 25 bp; S18[1-26] single-stranded; 1 nt 5' overhang on S20.
Lhr (archaeal Lhr, Mth1802), sequence (O27830 whole entry): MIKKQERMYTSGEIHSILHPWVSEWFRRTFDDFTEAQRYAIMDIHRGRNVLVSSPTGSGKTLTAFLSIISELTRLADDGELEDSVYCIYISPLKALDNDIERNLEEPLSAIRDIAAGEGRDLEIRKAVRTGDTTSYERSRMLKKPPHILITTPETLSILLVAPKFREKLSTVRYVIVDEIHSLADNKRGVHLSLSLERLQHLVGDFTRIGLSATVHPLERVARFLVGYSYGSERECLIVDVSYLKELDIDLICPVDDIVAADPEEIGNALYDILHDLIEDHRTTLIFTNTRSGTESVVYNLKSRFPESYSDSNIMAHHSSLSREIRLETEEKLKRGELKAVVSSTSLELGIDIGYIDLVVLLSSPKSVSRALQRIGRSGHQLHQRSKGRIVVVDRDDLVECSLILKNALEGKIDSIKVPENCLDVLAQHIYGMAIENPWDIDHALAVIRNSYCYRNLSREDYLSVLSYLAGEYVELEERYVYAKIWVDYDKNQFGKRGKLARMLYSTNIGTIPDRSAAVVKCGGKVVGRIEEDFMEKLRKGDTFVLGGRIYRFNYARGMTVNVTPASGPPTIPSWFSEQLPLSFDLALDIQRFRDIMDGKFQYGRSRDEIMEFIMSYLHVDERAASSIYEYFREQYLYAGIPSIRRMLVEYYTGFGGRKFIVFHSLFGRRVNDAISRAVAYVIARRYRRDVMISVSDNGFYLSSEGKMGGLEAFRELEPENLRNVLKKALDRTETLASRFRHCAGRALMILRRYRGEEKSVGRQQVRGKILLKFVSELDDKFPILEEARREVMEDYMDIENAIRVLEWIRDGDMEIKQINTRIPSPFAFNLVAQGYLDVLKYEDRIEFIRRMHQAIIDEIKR

B1: partial fork-2 lacking the red lagging strand (dsDNA)
DNA 1: ATCGATAGTCTCTAGACAGTATGTCCTAGCAAGCCAGAATTCGGCAGCGT
DNA 2: GACGCTGCCGAATTCTGGCTTGCTATGTAAATCTTTGCCCACGTTGACCC
DNA 3: GGGTCAACGTGGGCAAAGATTTACA
modifications: 5' biotin on S18
With B1, the binding result is on record as “binds”.

Source of the values: publication PMC7437997, “Mechanistic insights into Lhr helicase function in DNA repair”.
